Test results as given in the DeepSol protein solubility set.

Assay: soluble on expression in E. coli; label from the status in PepcDB or PDB records

Q: With “MTKPAPTPLYNEFTFFLKKYFSYKVQKISLNAGFTCPNRDGTKGLGGCTYCNNQTFNPEYCKTEKSVTRQLEEGKQFFAHKYPDMKYLAYFQAYTNTYAELEGLKGKYEEALSVDGVVGLVIGTRPDCMPDPLLRYLEELNKHTFLLVEYGIETTRDVTLKRINRGHTYADTVETVNRTAACGILTGGHVILGLPGETHDEIIAQAAELSRLPLTTLKMHQLQLIRGTKMAREFECRPEDFHLFSVDEYIDLVIDYVEHLRPDLILERFVSQSPKELLIAPDWGLKNYEFTARVQKRMKERGAYQGKAYLV” as the sequence, how does the “soluble on expression in E. coli” value read?
A: not soluble

Q: For “MTEHNHDSQLEINNEEELLTLFDEEGNEVLYRKVLEFYHPEFKKEYVILAEEGAQSDEDDMIELVPMINEPDESGDGGKLVPIETDEEWDMIEEVVNTEMEELEHHHHHH”, which “soluble on expression in E. coli” value is on record?
A: not soluble

Q: With “MSAVLNGKKPVSILLLGTDTGALGRNYKGRTDTIILATINPKTKTTTLMSLPRDSEVAVSGFEQDFPTKLNAAYAYGSAGTTIKTVQKWLNVPIDYYALINMGGMKKVVDEIGGVDITPIRTFTYEGYTFTKGQKEHMNGAKALAYSRMRYDDPLGDYGRQQRQRQLITAIIGESASASNLLKQDFLNSLAKQTRTDLTFGNLTSIVTNYRSATKNIVSDHAQGTGKMIDGQSFEVVSQSEKQRVTNVLRKSLNLKAATTGEKFANQNLEHHHHHH” as the sequence, how does the “soluble on expression in E. coli” value read?
A: soluble

Q: With “MGSDKIHHHHHHMDEFDYVRRKLIERILHLTEKQPVVRPLPGLTVGRRESPTEPSTYILPPSICIAVQGAKRVLIGEEYYVYDVENFLLNSFDVPVVAQVIEASKEKPYIGMTWEIDMEILMEIVVEQKLNTRPITSSRGTSLGKVTHQLLDAFRRMLELLDEPEHISALLPVIKKEIIYRLLVSEQGPRLIQIALSGKNDVITALNYLKEHFNESVNMKRLAEMVGMSVSTFYQNFKILTGMTPLQYQKKLRLCEARKLLMAGSDVTTAAYQVGYESLSQFSREYKRFFGVSPSQDAKKLKEEPYTRILY” as the sequence, how does the “soluble on expression in E. coli” value read?
A: not soluble

Q: For “MKLLLLLCISCIPLAYSHDGEPFDYLMFTTIYPTAVCRADDDSVPESCEIPSGTPQWSIHGLWPNFENGSYPQNCRGTPRHFDENLIKSIEDRLVVVWPNLYPKKTIQSFWKHEYDKHGTCAQSEKLFESELAYFTEVMKVFDSIDVAGGLKSVGPSEKPITSSDLKNALSGVTSGKTFQFHCLRDKKTKQFLLGDIRLCLNKDLTIRDCPTDGKHPNRVSRFERSIGRNRRGPPLPSFQPCPAEFIYLPEMSSISKSSDSTSPSIFGRIWSAIKNIGN”, which “soluble on expression in E. coli” value is on record?
A: not soluble

Q: Which “soluble on expression in E. coli” value does the source give for “MRPDLSRVPGVLGEIARKRASEVAPYPLPEPPSVPSFKEALLRPGLSVIAEVKRQSPSEGLIREVDPVEAALAYARGGARAVSVLTEPHRFGGSLLDLKRVREAVDLPLLRKDFVVDPFMLEEARAFGASAALLIVALLGELTGAYLEEARRLGLEALVEVHTERELEIALEAGAEVLGINNRDLATLHINLETAPRLGRLARKRGFGGVLVAESGYSRKEELKALEGLFDAVLIGTSLMRAPDLEAALRELVG” here?
A: soluble

Q: With “MGGKKFQAMPQLPSTVLDRVFEQARQQPEAIALRRCDGTSALRYRELVAEVGGLAADLRAQSVSRGSRVLVISDNGPETYLSVLACAKLGAIAVMADGNLPIAAIERFCQITDPAAALVAPGSKMASSAVPEALHSIPVIAVDIAAVTRESEHSLDAASLAGNADQGSEDPLAMIFTSGTTGEPKAVLLANRTFFAVPDILQKEGLNWVTWVVGETTYSPLPATHIGGLWWILTCLMHGGLCVTGGENTTSLLEILTTNAVATTCLVPTLLSKLVSELKSANATVPSLRLVGYGGSRAIAADVRFIEATGVRTAQVYGLSETGCTALCLPTDDGSIVKIEAGAVGRPYPGVDVYLAATDGIGPTAPGAGPSASFGTLWIKSPANMLGYWNNPERTAEVLIDGWVNTGDLLERREDGFFYIKGRSSEMIICGGVNIAPDEVDRIAEGVSGVREAACYEIPDEEFGALVGLAVVASAELDESAARALKHTIAARFRRESEPMARPSTIVIVTDIPRTQSGKVMRASLAAAATADKARVVVRG” as the sequence, how does the “soluble on expression in E. coli” value read?
A: soluble

Q: Which “soluble on expression in E. coli” value does the source give for “MSLPAYKRVLLKLSGEALMGDDAFGINRSTIEGMVNDIAEIVRLGVQVAVVIGGGNIFRGVAGGAAGMDRATADYMGMLATMMNALALQDAMRHANIEGRVQSALRMDQVVEPYIRPRAIRQLEEGKVVIFAAGTGNPFFTTDTAAALRGSEIGAEIVLKATKVDGVYTADPKKDPSATRYTTISFDEAISRNLQVMDATAFALCRDQKLPIKVFSIQKPNALKRVIMGEDEGTLEGHHHHHH” here?
A: soluble

Q: With “MSLKLIATDMDGTLLRSNGEFPNEFPLILDSLLNKNIMFSVASGRQYFTLKDNMAGFEDKITFIAENGAFIVKDGKELFAKTLDRDMLSKVVDDAKKVPDCKLVLCGKKSAYVLDKSSAFIEEVEKYYHKSAVVNSLDEIDDEFFKIAICDYKGSANNSNVLLSPKWGKLFQLTVSGDIWLDIGRNDVNKGTAIKFLQDKFNINENETMAFGDYYNDVSMLQSVYHSYVMENAPDGVKKHGRFIAKSNDESGVIQVIKNKVLELGAEGHHHHHH” as the sequence, how does the “soluble on expression in E. coli” value read?
A: soluble

Q: With “MSLRASVAATKQKRFVAVDIETTGLNTESDQILSIGAVKHDGIEFYRLIKQDIDVPKQIVELTGITSEMLSKEGVPLQDALEELTDFVGNVPIVGYNFRFDSVFLNRDYRKCGMQELKNEIKDLLPVVKRREKFLDNYKLQTVLSNYGIENKVPHNAVSDARATKELAMKLIKNRILVIEGHHHHHH” as the sequence, how does the “soluble on expression in E. coli” value read?
A: soluble

Q: Which “soluble on expression in E. coli” value does the source give for “MAHHHHHHMQMNSYAGGYTTHNRSYAAMVPPPMPMPPGWEMAYTPNGEIYYIDHNTRTTHWQLPAEYTMQQPVCSYRGPQRQRRGIDRSKAKTKMCMNIENGGTCSYGANCAFAHSSEELSTHPHFNSAPDAGYSAK” here?
A: not soluble

Q: Which “soluble on expression in E. coli” value does the source give for “MGSDKIHHHHHHMAPYPYKVQTTVPELQYENFDGAKFGYMFWPVQNGTNEVRGRVLLIHGFGEYTKIQFRLMDHLSLNGYESFTFDQRGAGVTSPGRSKGVTDEYHVFNDLEHFVEKNLSECKAKGIPLFMWGHSMGGGICLNYACQGKHKNEISGYIGSGPLIILHPHTMYNKPTQIIAPLLAKFLPRVRIDTGLDLKGITSDKAYRAFLGSDPMSVPLYGSFRQIHDFMQRGAKLYKNENNYIQKNFAKDKPVIIMHGQDDTINDPKGSEKFIQDCPSADKELKLYPGARHSIFSLETDKVFNTVFNDMKQWLDKHTTTEAKP” here?
A: not soluble

Q: With “MNNHFKCIGIVGHPRHPTALTTHEMLYRWLCTKGYEVIVEQQIAHELQLKNVKTGTLAEIGQLADLAVVVGGDGNMLGAARTLARYDIKVIGINRGNLGFLTDLDPDNAQQQLADVLEGHYISEKRFLLEAQVCQQDCQKRISTAINEVVLHPGKVAHMIEFEVYIDEIFAFSQRSDGLIISTPTGSTAYSLSAGGPILTPSLDAITLVPMFPHTLSARPLVINSSSTIRLRFSHRRNDLEISCDSQIALPIQEGEDVLIRRCDYHLNLIHPKDYSYFNTLSTKLGWSKKLFMAGDPLEHHHHHH” as the sequence, how does the “soluble on expression in E. coli” value read?
A: soluble

Q: For “MGSDKIHHHHHHMRRSKLTPTTPPMFKNLSVYRIQGDWHPAIAEAEASLQKFRFAECGATQAISAGWVEPRGEKHGPLVEAVGDQWMLTLCIQTKLLPAGVIKQHVDARIEQIKQREARRPGKKEVREIKEAVILELLPKAFSKKEHISVWIDRKNKLVAIDTASQSKCDTATSALVKTLDGLAIGLIQTQMSPGTCMSQWLMDGEAPDGFGVERECELKSSDESRSAVKYSRHVLDIDEVKQHLTHGKTPTQLAMTWTDRVSFTLTDAMALKKVTFLETPLMKKKAGGDDPFDANAAIVTGELSQLIPQLIEALGGELEFTGESGEGAREAKSEEREQETAEA”, which “soluble on expression in E. coli” value is on record?
A: not soluble

Q: For “MRNTMRSFILRARSAPTDSQRLLDEIGGKCHTEILAHCMMNSLFTAQSHREDVVIHLVLESTRDYSRTITVEANEISDVGGFHEAALIALLVKALDASVGMGKEQTRVVQPGLTVRTISFEALLGELAEHHSLYMMDKKGDSIRDIKIGPNPCFILTDHIPMPKKSGNSMKRLGVEKISLGPKMLFASQCVTLIHNEIDHQEAGW”, which “soluble on expression in E. coli” value is on record?
A: soluble

Q: For “MSLIDLKPKVERVDAIQSFVSQETPIVTIHDSDGASGTGYSYTIGTGGPSVMALLEQTLVPALIGKDADRIDGIWRDLLFLTHATAVGPITSLALAAIDIALWDLRCKKMGLPLWKAAGGSRDRIPLYSTEGGWLHLETAALVEDALAMKEQGFRGSKIKIGRAHLSEDRARLGAIRAAVGDSYEIMTDANQGFTLSEAIRRAKVLEEFGIGWFEEPLPADDVLSHQELSRRTHVPIAVGESMYSLSQFKDYLQVGAAQIVQVDVARIGGITPWLKVAHLAEAHSVMVCPHFLMELHLPLVCAVPNAKWLEYIPQLDGVTRQNMQISNGDAVPSDEPGLGIDWDWDAITAQEIGARSIGGAEGHHHHHH”, which “soluble on expression in E. coli” value is on record?
A: not soluble

Q: For “MPKVDVYDINGKVVGEINLRDDIFGIEVNKHAIHQVIVNQLANRRQGTQSTKTKSEVRGGGRKPWRQKGTGRARHGSIRSAQWVKGGIALGPKPRSYKYAVPKKLRRLALKSALSSKVNENELLVLDSLNFDEIKTKQMANVLKNLKVNDTTAVLVLADKNRNVELSARNIPGLKTLFVNTMNVYDIIRHDKFIITKDAVAKVEEVYA”, which “soluble on expression in E. coli” value is on record?
A: not soluble

Q: With “MSYQPTSLTVASYNLRNANGSDSARGDGWGQRYPVIAQMVQYHDFDIFGTQECFLHQLKDMKEALPGYDYIGVGRDDGKDKGEHSAIFYRTDKFDIVEKGDFWLSETPDVPSKGWDAVLPRICSWGHFKCKDTGFEFLFFNLHMDHIGKKARVESAFLVQEKMKELGRGKNLPAILTGDFNVDQTHQSYDAFVSKGVLCDSYEKCDYRYALNGTFNNFDPNSFTESRIDHIFVSPSFHVKRYGVLTDTYRSVRENSKKEDVRDCPEEITIKAYEARTPSDHFPVKVELVFDLEHHHHHH” as the sequence, how does the “soluble on expression in E. coli” value read?
A: soluble

Q: For “SRLFSKALKGDHRCGETETPKSCSEVAGCKAAMRHQGKIPEELSLDDRARTQKKWGRGKWEPEPSSKPPREATLEERHARGEKHLGVEIEKTSGEIIRCEKCKRERELQQSLERERLSLGTSELDMGKGPMYDVEKLVRTRSCRRSPEANPASGEEGWKGDSHRSSPRNPTQELRRPSKSMDKKEDRGPEDQESHAQGAAKAKKDLVEVLPVTEEGLREVKKDTRPMSRSKHGGWLLREHQAGFEKLRRTRGEEKEAEKEKKPCMSGGRRMTLRDDQPAKLEKEPKTRPEENKPERPSGRKPRPMGIIAANVEKHYETGRVIGDGNFAVVKECRHRETRQAYAMKIIDKSRLKGKEDMVDSEILIIQSLSHPNIVKLHEVYETDMEIYLILEYVQGGDLFDAIIESVKFPEPDAALMIMDLCKALVHMHDKSIVHRDLKPENLLVQRNEDKSTTLKLADFGLAKHVVRPIFTVCGTPTYVAPEILSEKGYGLEVDMWAAGVILYILLCGFPPFRSPERDQDELFNIIQLGHFEFLPPYWDNISDAAKDLVSRLLVVDPKKRYTAHQVLQHPWIETAGKTNTVKRQKQVSPSSEGHFRSQHKRVVEQVS”, which “soluble on expression in E. coli” value is on record?
A: soluble

Q: For “MKIFNNVHCRIRNTISCSNYIFSAVWNFLISVFINKTNFNNSVYCRIFKVSIGLRKSISSTTRTRWVPVVFICSRSTNRWTGARSVNPIRNLIYIKLSILNKVRPIFRLEHHHHHH”, which “soluble on expression in E. coli” value is on record?
A: not soluble

Q: Which “soluble on expression in E. coli” value does the source give for “MTYYNVGKIVNTQGLQGELRVLSVTDFADERFKKKSVLALFDDKDNYIMDVEVASHRKHKNFDIVKFKGLYHINDVEKYKGCSLKIAEENLTDLDDGEFYYHEIIGLDVYEGNTLIGQVKEILQPGANDVWVVKRKGKKDLLLPYIPPVVLDVDVAAGRIEVELMEGLDDEDLEHHHHHH” here?
A: soluble

Q: Which “soluble on expression in E. coli” value does the source give for “MEVEIEDIDEVATLTETDIVEIQTKLIEDLQEMVVKDKEKHEKLLKLGEHVLDEQTRLRTRLSEEFGDFLNRSKRSLTRNFETADGNVYSFEKNLRELLHLYITVHNRVKQDEKEVAKQDEFLNQIDRNEMELKDLRDNIRSLRSELTVDVGPVSSVTSKTSGIEANFIVKPYKPLETELATQIVRVNRELEILKMQLPNCDHFPNLMNPVQKLGEKVTGMVMKDLPAKKLQDFLDTLPPMKRD” here?
A: not soluble
